Assay [1] concerns the target RagA (TonB dependent transporter, PG_0185) of P. gingivalis W83 (Porphyromonas gingivalis W83). Briefly: crystal structure.
Assay [2] shares this target. Briefly: cryo-EM structure.
Assay [3] concerns the target RagB from W83, mature part, C-terminal His6-tag, expressed in E. coli (Porphyromonas gingivalis W83). Put plainly: MST.
Assay [4] deals with RagB from ATCC 33277, mature part, C-terminal His6-tag, expressed in E. coli (Porphyromonas gingivalis ATCC 33277). Briefly: MST.
For assay [5], the target named is RagAB complex from wild-type P. gingivalis W83, 8×His-tag on the C terminus of RagB (Porphyromonas gingivalis W83). Put plainly: MST.

Turning to “RagA (TonB dependent transporter, PG_0185) of P. gingivalis W83 (natural protein)”, the stoichiometry N in assay [1] and in assay [2] was 2 throughout.
Take NIFKKNVGFKK [P4 peptide (unlabelled)]: the equilibrium dissociation constant (Kd) worked out at 2000 µM in assay [3] and 70 µM in assay [4].
KATAEALKKALEEAGAEVELK [P21 peptide (21 residues from the C-terminus of ribosomal protein L7)]: the Kd in assay [3] is 2000 µM; in assay [4], 700 µM; in assay [5], 0.4 µM.

The term stoichiometry N denotes the number of molecules, sites or subunits per partner or assembly. By Kd is commonly meant the constant that tells how readily two partners part at equilibrium. High values mean lower affinity, low ones higher affinity.

These data come from article doi:10.1101/755678.
